Reference: patent US20050196380A1, “Method for delivering therapeutic proteins to the intradermal compartment” (priority 2004, published 2005)

Experiments:
[1] = Bolus ID vs SC insulin in diabetic Yucatan Mini swine, serum insulin levels; assay type: in vivo; conditions: for PK profiles for regular and fast-acting insulin by the ID route / uptake by ID route compared with Lispro given by the traditional SC route: SS3_34
Method: Lilly Lispro is regarded as fast acting insulin, and has a slightly altered protein structure relative to native human insulin. Hoechst regular insulin, maintains the native human insulin protein structure that is chemically similar, but has slower uptake than Lispro when administered by the traditional SC route. Both insulin types were administered in bolus via the ID route to determine if any differences in uptake would be discernable by this route. 5 U of either insulin type were administered to the ID space using dermal access microdevice design SS3—34.
Thus, 5 U of Lilly Lispro fast-acting insulin was administered using dermal access design SS3—34. Additional microdevices of the same needle array configuration were fabricated whereby exposed needle lengths of the microdevice array, were lengthened to include arrays with needles lengths of 2 and 3 mm. The average total dermal thickness in Yucatan Mini swine ranges from 1.5-2.5 mm. Therefore insulin deposition is expected to be into the dermis, approximately at the dermal/SC interface, and below the dermis and within the SC for 1 mm, 2 mm, and 3 mm length needles respectively. Bolus insulin administration was as described in Example 6.2.
Bolus delivery of Lantus long-acting insulin was delivered via the ID route. Lantus is an insulin solution that forms microprecipitates at the administration site upon injection. […] Lantus insulin (10 U dose, 100 μL) was administered to diabetic Yucatan Mini pigs using the dermal access design SS3—34 and by the standard SC method as previously described. […] More importantly this supports the fact that the biological clearance mechanism in the body is not appreciably changed by the administration route, nor is the way in which that the drug substance is utilized. This is extremely important for drugs compounds that have a long circulating half-life (examples would be large soluble receptor compounds or other antibodies for cancer treatment, or chemically modified species such as PEGylated drugs).

blood glucose [2] = test: Bolus ID vs SC insulin in diabetic Yucatan Mini swine, blood glucose; conditions: bolus 10 U, 100 μL
Method: Bolus delivery of Lilly Lispro fast acting insulin was performed using ID and SC bolus administration. The ID injection microdevice was dermal access array design SS3—34.10 international insulin units (U) corresponding to 100 μL volume respectively, were administered to diabetic Yucatan Minis swine. Test animals had been previously been rendered diabetic by chemical ablation of pancreatic islet cells, and were no longer able to secrete insulin. Test animals received their insulin injection either via the microneedle array or via a standard 30 G×½ in. needle inserted laterally into the SC tissue space. Circulating serum insulin levels were detected using a commercial chemiluminescent assay kit (Immulite, Los Angeles, Calif.) and blood glucose values were determined using blood glucose strips. ID injections were accomplished via hand pressure using an analytical microsyringe and were administered over approximately 60 sec.

blood glucose [3] = test: Slow-infusion ID insulin delivery in swine, blood glucose response; conditions: ID infusion 2 U/hr, relative to negative controls and SC infusion
Source text: The distal end of the microneedle was placed into the plastic catheter and cemented in place with epoxy resin to form a depth-limiting hub. The needle outlet was positioned approximately 1 mm beyond the epoxy hub, thus limiting penetration of the needle outlet into the skin to approximately 1 mm, which corresponds to the depth of the intradermal space in swine. The catheter was attached to a MiniMed 507 insulin pump for control of fluid delivery. The distal end of the microneedle was placed into the plastic catheter and cemented in place with epoxy resin to form a death-limiting hub. The needle outlet was positioned approximately 1 mm beyond the epoxy hub, thus limiting penetration of the needle outlet into the skin to approximately 1 mm, which corresponds to the depth of the intradermal space in swine. […] The catheter was connected to an-external insulin infusion pump (MiniMed 507) via the integral Luer connection at the catheter outlet. The pump was filled with Humalog™ (Lispro) insulin (Eli Lilly, Indianapolis, Ind.) and the catheter and microneedle were primed with insulin according to the manufacturer's instructions. […] Blood samples were periodically withdrawn and analyzed for serum insulin concentration and blood glucose values.

[4] = Slow-infusion ID vs SC insulin delivery in swine, serum insulin pharmacokinetics; assay type: in vivo
Method: Pharmacokinetic parameters of the delivered substances in accordance with the methods of the invention may be determined using methods known to one skilled in the art. An exemplary pharmacokinetic analysis of infusion data of a substance, e.g., insulin, delivered in accordance with the methods of the invention is carried out as follows. Stepwise nonlinear least-squares regression is used to analyze the insulin concentration-time data from each individual animal. Initially, an empirical biexponential equation is fit to the insulin concentration-time data for the negative control condition. This analysis assumes first-order release of residual insulin, and recovers parameters for the first-order rate constant for release, the residual insulin concentration at the release site, a lag time for release, and a first-order rate constant for elimination of insulin from the systemic circulation. The parameters recovered in this phase of the analysis are of no intrinsic importance, but merely account for the fraction of circulating insulin derived from endogenous sources.
The second step of the analysis involves fitting an explicit compartmental model to the insulin concentration-time data during and after subcutaneous or intradermal infusion. The scheme upon which the mathematical model is based is shown in the upper part of FIG. 1. Infusion of insulin proceeds from t=−0 to t=240-min; after a lag-time (tlag,2) absorption from the infusion site is mediated by a first-order process governed by the absorption rate constant ka. Insulin absorbes into the systemic circulation, distributes into an apparent volume V contaminated by an unknown fractional bioavailability F, and is eliminated according to a first-order rate constant K. The fitting routine recovered estimates of tlag,2, ka, V/F, and K; parameters associated with the disposition of endogenous insulin (CR, tlag,1, kR), which are recovered in the first step of the analysis, are treated as constants. Parameter estimates are reported as mean±SD. The significance of differences in specific parameters between the two different modes of insulin administration (subcutaneous versus intradermal infusion) are assessed with the paired Student's t-test.

[5] = ID vs SC infusion of PTH, weight normalized PTH plasma levels; assay type: in vivo
Method: An ID administration experiment was conducted using a peptide drug entity: human parathyroid hormone 1-34 (PTH). […] Control SC infusion was through a standard 31-gauge needle inserted into the SC space lateral to the skin using a “pinch-up” technique. ID infusion was through dermal access microdevice design SSB1—30 (a stainless steel 30-gauge needle bent at the tip at a 90° angle such that the available length for skin penetration was 1-2 mm). The needle outlet (the tip of the needle) was at a depth of 1.7-2.0 mm in the skin when the needle was inserted. A 0.64 mg/mL PTH solution was infused at a rate of 75 μL/hr. Flow rate was controlled via a Harvard syringe pump.

[6] = Bolus ID delivery of GCSF to Yucatan minipigs, plasma GCSF by ELISA; assay type: in vivo; conditions: bolus ID relative to SC
Method: (§1) Bolus ID delivery of human granulocyte colony stimulating factor (GCSF) (Neupogen) was administered via dermal access microdevice designs SS3—34B (array) or SS1—34 (single needle) to Yucatan minipigs. Delivery rate was controlled via a Harvard syringe pump and was administered over a 1-2.5 min period. […] Administration via IV and SC delivery was performed as controls.

[7] = system: white blood cell (WBC) counts; test: White blood cell expansion after GCSF administration; assay type: in vivo, Yucatan minipigs; conditions: ID, SC and IV delivery vs negative control
Method: as §1

[8] = bolus 10 U, 100 μL, SS3_34 array vs SC needle
[9] = 4 hour infusion, 0.64 mg/mL at 75 μL/hr

Lantus
"burst" immediately after the ID insulin delivery, relative to SC ([1]; bolus 10 U dose, 100 μL): slightly higher

Hoechst regular insulin: regular insulin that maintains the native human insulin protein structure
PK profiles for regular and fast-acting insulin by the ID route ([1]; bolus 5 U): essentially identical | uptake by ID route compared with Lispro given by the traditional SC route ([1]; bolus 5 U): faster uptake

Lispro
decrease in blood glucose (BG), ID vs SC (blood glucose [2]): faster and greater changes in BG | blood glucose drop (blood glucose [3]): improved relative to conventional SC infusion | PK profiles for regular and fast-acting insulin by the ID route ([1]; bolus 5 U): essentially identical | uptake by ID route compared with Lispro given by the traditional SC route ([1]; bolus 5 U): faster uptake | PK profile as microneedle length is increased ([1]; bolus 5 U, needle lengths 1, 2 and 3 mm): more closely resemble SC administration | maximum concentration obtained (Cmax), ID vs SC [1, 8]: higher | time to maximum concentration (Tmax), ID vs SC [1, 8]: shorter | lag time prior to absorption (tlag) ([4]; ID infusion, 2 U/hr for 4 hr): 0.88 min | rate of uptake from the administration site, ka ([4]; ID infusion, 2 U/hr for 4 hr): 0.0666 min⁻¹ | bioavailability, ID relative to SC administration ([4]; ID relative to SC infusion): approximately 1.3 fold | increase of rate of uptake from the administration site, ID vs SC ([4]; ID relative to SC infusion): approximately 3 fold | lag time prior to absorption (tlag) ([4]; SC infusion): 13.6 min | rate of uptake from the administration site, ka ([4]; SC infusion): 0.0225 min⁻¹

PTH: peptide drug entity: human parathyroid hormone 1-34
plasma level following termination of infusion, ID ([5]; 2 hour clearance after 4 hour infusion): rapid decrease | area under the curve (AUC) of weight normalized plasma level, ID vs SC [5, 9]: larger area under the curve | peak values at earlier sampling timepoints (15 and 30 min), ID vs SC [5, 9]: higher peak values

B1: GCSF: human granulocyte colony stimulating factor (GCSF) (Neupogen) (protein, chains of the INN, looked up)
chain: MTPLGPASSLPQSFLLKCLEQVRKIQGDGAALQEKLCATYKLCHPEELVLLGHSLGIPWAPLSSCPSQALQLAGCLSQLHSGLFLYQGLLQALEGISPELGPTLDTLQLDVADFATTIWQQMEELGMAPALQPTQGAMPAFASAFQRRAGGVLVASHLQSFLEVSYRVLRHLAQP
bioavailability increase (AUC), ID vs SC [6]: approximately 2 fold | white blood cell expansion (PD outcome) [7]: approximately equal PD outcomes
